In article PMC5716667 one finds stoichiometry N data, which are given here for 1 substance.

The test deals with COPI coatomer (heptameric complex) (Chlamydomonas reinhardtii (endogenous in C. reinhardtii cells)). Put plainly: cryo-EM structure; in situ cryo-electron tomography of cryo-FIB milled vitrified C. reinhardtii cells, reference-free subtomogram averaging of the COPI triad with three-fold symmetry, 20 Å; PDB 5A1U fitted as a rigid body; separate averages of buds, vesicles and Golgi regions.

By stoichiometry N is commonly meant a count of units in the complex or per binding partner.

In turn, COPI coatomer (heptameric complex) showed a stoichiometry N of 3.
